Assay results: patent publication US20240368263A1 (PROMETHEUS BIOSCIENCES, published 2024)

B1: clone 3-4 Fab (12835 framework variant) (Fab, V domains shown)
VH: QVQLVQSGAEVKKPGASVKLSCKASGFDIQDTYMHWVRQAPGQGLEWMGRIDPASGHTKYDPKFQVRVTMTTDTSTSTVYMELSSLRSEDTAVYYCSRSGGLPDVWGQGTTVTVSS
VL: EIVLTQSPGTLSLSPGERATLSCRASSSVSYMYWYQQKPGQAPRPWIYATSNLASGVPDRFSGSGSGTDFTLTISRLEPEDFAVYYCQQWSGNPRTFGGGTKLEIK
notes: Fab
B2: clone 10-1 Fab (12835 framework variant) (Fab, V domains shown)
VH: QVQLVQSGAEVKKPGASVKLSCKASGFDIQDTYMHWVRQAPGQGLEWMGRIDPASGHTKYDPKFQVRVTMTRDTSTSTVYMELSSLRSEDTAVYYCSRSGGLPDVWGQGTTVTVSS
VL: EIVLTQSPGTLSLSPGERATLSCRASSSVSYMYWYQQKPGQAPRLLIYATSNLASGVPDRFSGSGSGTDYTLTISRLEPEDFAVYYCQQWSGNPRTFGGGTKLEIK
notes: Fab
B3: clone 5-2 Fab (12835 framework variant) (Fab, V domains shown)
VH: QVQLVQSGAEVKKPGASVKLSCKASGFDIQDTYMHWVRQAPGQGLEWMGRIDPASGHTKYDPKFQVRVTMTRDTSTSTVYMELSSLRSEDTAVYYCSRSGGLPDVWGQGTTVTVSS
VL: EIVLTQSPGTLSLSPGERVTMSCRASSSVSYMYWYQQKPGQAPRPWIYATSNLASGVPDRFSGSGSGTDYTLTISRLEPEDFAVYYCQQWSGNPRTFGGGTKLEIK
notes: Fab
B4: clone 5-1 Fab (12835 framework variant) (Fab, V domains shown)
VH: QVQLVQSGAEVKKPGASVKLSCKASGFDIQDTYMHWVRQAPGQGLEWMGRIDPASGHTKYDPKFQVRVTMTRDTSTSTVYMELSSLRSEDTAVYYCSRSGGLPDVWGQGTTVTVSS
VL: EIVLTQSPGTLSLSPGERATLSCRASSSVSYMYWYQQKPGQAPRPWIYATSNLASGVPDRFSGSGSGTDYTLTISRLEPEDFAVYYCQQWSGNPRTFGGGTKLEIK
notes: Fab
B5: clone 7-4 Fab (12835 framework variant) (Fab, V domains shown)
VH: QVQLVQSGAEVKKPGASVKLSCKASGFDIQDTYMHWVRQAPGQGLEWMGRIDPASGHTKYDPKFQVRVTMTTDTSTSTVYMELSSLRSEDTAVYYCSRSGGLPDVWGQGTTVTVSS
VL: EIVLTQSPGTLSLSPGERATLSCRASSSVSYMYWYQQKPGQAPRLWIYATSNLASGVPDRFSGSGSGTDYTLTISRLEPEDFAVYYCQQWSGNPRTFGGGTKLEIK
notes: Fab
B6: clone 5-4 Fab (12835 framework variant) (Fab, V domains shown)
VH: QVQLVQSGAEVKKPGASVKLSCKASGFDIQDTYMHWVRQAPGQGLEWMGRIDPASGHTKYDPKFQVRVTMTTDTSTSTVYMELSSLRSEDTAVYYCSRSGGLPDVWGQGTTVTVSS
VL: EIVLTQSPGTLSLSPGERATLSCRASSSVSYMYWYQQKPGQAPRPWIYATSNLASGVPDRFSGSGSGTDYTLTISRLEPEDFAVYYCQQWSGNPRTFGGGTKLEIK
notes: Fab
B7: clone 9-1 Fab (12835 framework variant) (Fab, V domains shown)
VH: QVQLVQSGAEVKKPGASVKLSCKASGFDIQDTYMHWVRQAPGQGLEWMGRIDPASGHTKYDPKFQVRVTMTRDTSTSTVYMELSSLRSEDTAVYYCSRSGGLPDVWGQGTTVTVSS
VL: EIVLTQSPGTLSLSPGERATLSCRASSSVSYMYWYQQKPGQAPRPWIYATSNLASGVPDRFSGSGSGTDFTLTISRLEPEDFAVYYCQQWSGNPRTFGGGTKLEIK
notes: Fab
B8: clone 13-2 Fab (12835 framework variant) (Fab, V domains shown)
VH: QVQLVQSGAEVKKPGASVKLSCKASGFDIQDTYMHWVRQAPGQGLEWMGRIDPASGHTKYDPKFQVRVTMTRDTSTSTVYMELSSLRSEDTAVYYCARSGGLPDVWGQGTTVTVSS
VL: EIVLTQSPGTLSLSPGERATLSCRASSSVSYMYWYQQKPGQAPRPWIYATSNLASGVPDRFSGSGSGTDYTLTISRLEPEDFAVYYCQQWSGNPRTFGGGTKLEIK
notes: Fab

Biological target: T1, human TL1A (Fitzgerald, Prod. #30R-AT070) (human, UniProt O95150 72-251, limits assumed, biotinylated with EZ-Link Sulfo-NHS-LC-Biotin where used as soluble antigen)
T1 construct: also called TNFSF15; biotinylated human TL1A
T1 sequence (looked up): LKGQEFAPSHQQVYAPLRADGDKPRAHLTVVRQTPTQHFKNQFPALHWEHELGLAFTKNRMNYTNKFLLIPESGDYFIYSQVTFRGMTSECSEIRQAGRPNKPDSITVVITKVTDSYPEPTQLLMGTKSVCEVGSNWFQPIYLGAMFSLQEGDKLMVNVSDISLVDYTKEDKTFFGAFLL
Assay: capture lift screen and Fab ELISA on coated TL1A

Binding result, binds:
B1
B2
B3
B4
B5
B6
B7
B8
